The data set is described as follows: protein stability index of a GFP-peptide fusion (yeast GPS) (PSI 1-4); higher = more stable; sorted into four equal gates, so the index is relative within each strain. The gist of the method:
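For each peptide, the protein stability index sums the read frequency in every gate after multiplying it by the gate number. Read frequencies came from plasmids that were PCR-amplified from each gate and Illumina-sequenced, with reads assigned to strains by barcodes. The gates were four equal bins of GFP/Cherry fluorescence ratio applied to mid-log yeast in leucine-free medium carrying a pooled library of tiled 17-residue yeast protein peptides fused downstream of GFP on a Cherry-expressing plasmid.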

± gives the uncertainty stated by the source.

For the sequence GYQWGEENKDIMNVLSE [PRP8], the protein stability index is 2.8 ± 0.22 (doa10∆) and 3.16 ± 0.24 (ubr1∆).
On to VSITPGKIEKIAQSKKK [SRP21], for which the protein stability index amounted to 1.62 ± 0.081 (doa10∆), 1.8 ± 0.086 (pdr5∆), 1.36 ± 0.13 (san1∆) and 1.49 ± 0.06 (ubr1∆).
In the case of GLVDENKVEAFKSLYTF [YAR002W/NUP60], the protein stability index reads like this: (doa10∆) 3.01 ± 0.089; (pdr5∆) 2.65 ± 0.08; (san1∆) 3.39 ± 0.054; (ubr1∆) 2.83 ± 0.043.
For SGSQNISEFDSFTDILK [RPN12] the same measures were 3.37 ± 0.17, 3.12 ± 0.09, 3 ± 0.099 and 3.03 ± 0.066.
In the case of QLEKKIRFVCLSNCLAN [BRR2], the protein stability index runs as follows: (doa10∆) 1.82 ± 0.065; (pdr5∆) 1.32 ± 0.048; (san1∆) 1.31 ± 0.099; (ubr1∆) 1.63 ± 0.045.
DKQAEGTPLFTFGKKAD [YOR098C/NUP1]: the protein stability index was 2.43 ± 0.06 (doa10∆), 2.43 ± 0.078 (pdr5∆), 2.5 ± 0.077 (san1∆) and 1.75 ± 0.066 (ubr1∆).
For SASLHTRSLKYGKLRNG [RRP4] the same measures were 1.58 ± 0.075, 2.15 ± 0.11, 1.08 ± 0.13 and 2.82 ± 0.16.
With LRQQQQQQDQPEQSEQP [RPN10], the protein stability index reads like this: (doa10∆) 3.21 ± 0.09; (pdr5∆) 3.28 ± 0.076; (san1∆) 2.74 ± 0.081; (ubr1∆) 3.17 ± 0.064.
Turning to WYKVAKNVGNKSPEQCI [SWI3], the protein stability index came to 2.98 ± 0.097 (doa10∆), 3.27 ± 0.07 (pdr5∆), 3.07 ± 0.093 (san1∆) and 3.08 ± 0.05 (ubr1∆).
In the case of EEKEEEAAEESDDDMGF [RPP1B], the protein stability index reads like this: (doa10∆) 3.19 ± 0.06; (pdr5∆) 3.23 ± 0.065; (san1∆) 3.09 ± 0.048; (ubr1∆) 3.31 ± 0.036.
For the sequence IGGRRFSEGTSADREIQ [RPT4], the protein stability index (doa10∆) was found to be 2.51 ± 0.085, the protein stability index (pdr5∆) was found to be 2.59 ± 0.088, the protein stability index (san1∆) is 1.98 ± 0.12 and the protein stability index (ubr1∆) is 2.77 ± 0.19.
For the setting “san1∆”, DERTKEFEKKLQETLNK [YIL149C/MLP2] registered a protein stability index of 2.88 ± 0.12.
Consider LVHGIFGAKMSRTLILS [SIN4], for which the protein stability index (doa10∆) amounted to 1.8 ± 0.063, the protein stability index (pdr5∆) was 1.41 ± 0.044, the protein stability index (san1∆) was 1.36 ± 0.088 and the protein stability index (ubr1∆) turned out to be 1.65 ± 0.039.
As to DGNNANYIYAGYENGML [RPN14], the protein stability index is, setting by setting: (doa10∆) 2.73 ± 0.1; (pdr5∆) 2.75 ± 0.094; (san1∆) 2.79 ± 0.083; (ubr1∆) 2.96 ± 0.069.
Consider DGGKTLRACAANVDQIS [YMR129W/POM152], for which the protein stability index is, setting by setting: (doa10∆) 2.15 ± 0.13; (pdr5∆) 2.94 ± 0.11; (san1∆) 2.94 ± 0.13; (ubr1∆) 2.37 ± 0.11.
As for RVPIRSEYKVAFPHLYN [PRP8], the protein stability index reads like this: (doa10∆) 2.54 ± 0.069; (pdr5∆) 2.27 ± 0.062; (san1∆) 2.34 ± 0.083; (ubr1∆) 2.08 ± 0.041.
As for QEKESQIQLAESELSLL [SMC4], the protein stability index runs as follows: (doa10∆) 2.81 ± 0.046; (pdr5∆) 2.95 ± 0.051; (san1∆) 1.89 ± 0.076; (ubr1∆) 2.71 ± 0.039.
For DSNMDSISSVVSEDLLD [RPN4] the same measures were 2.3 ± 0.073, 2.31 ± 0.056, 2.76 ± 0.05 and 2.45 ± 0.032.
The like results for STTTSLHVPNLQPPKTS [SMC4] were, in that order, 2.13 ± 0.036, 2.33 ± 0.033, 2.1 ± 0.046 and 1.93 ± 0.027.
For the sequence YKNLDRGFSKDLKSKAD [RRP6], the protein stability index was found to be 3.05 ± 0.1 (doa10∆), 3.27 ± 0.15 (pdr5∆), 3.31 ± 0.065 (san1∆) and 3.53 ± 0.099 (ubr1∆).
Take RQNKVQHQRIVAFVCSP [RPN10]: the protein stability index is, setting by setting: (doa10∆) 1.24 ± 0.069; (pdr5∆) 1.4 ± 0.12; (ubr1∆) 1.42 ± 0.12.

The record behind these values is the supplement of paper PMC9732359.
